Experimental findings from patent US20180305450A1 (AstraZeneca / MedImmune, published 2018) are described below.

B1: PaB670087 scFv (scFv, V domains shown)
VH: EVQLLESGGGLVQPGGSLRLSCAASGFTFSSYAMNWVRQAPGKGLEWVSTISYHGSHISYADHHKHRFTISRDNSKNTLYLQMNSLRAEDTAVYYCARINNDPMDVWGQGTLVTVSS
VL: SIELTQPPSVSVSPGQTASITCSGDNLGKKYVQWYQQKPGQSPVLVIYDDSNRPSGIPERFSGSNSGNTATLTISGTQAMDEADYYCQTWDGNPTTGETNVFGGGTKLTVL
notes: purified scFv; also called ZZ1ODR-B05
B2: Par0067 scFv (scFv, V domains shown)
VH: B1 VH with H54S, H57L, H63S, H64V, H66G
VL: B1 VL
notes: purified scFv, parent clone; also called ZZ15D2-D02
B3: PaB670101 scFv (scFv, V domains shown)
VH: B1 VH with H54S, H57L, H63S, H64V, H66G, N100H, N101H, D102H, M104H, V106H
VL: B1 VL
notes: purified scFv; also called ZZ1ODO-H01
B4: PaB670102 scFv (scFv, V domains shown)
VH: B1 VH with H54S, H57L, H63S, H64V, H66G, N101H, V106H
VL: B1 VL
notes: purified scFv; also called ZZ1PXS-F08
B5: PaB670108 scFv (scFv, V domains shown)
VH: B1 VH with H54S, H57L, H63S, H64V, H66G
VL: B1 VL with T89H, D91H, N93H, P94H, T95H
notes: purified scFv; also called ZZ1RD3-H03
B6: PaB670091 scFv (scFv, V domains shown)
VH: EVQLLESGGGLVQPGGSLRLSCAASGFTFSSYAMNWVRQAPGKGLEWVSTISHSGHLIHHHHSVKGRFTISRDNSKNTLYLQMNSLRAEDTAVYYCARINNDPMDVWGQGTLVTVSS
VL: B1 VL
notes: purified scFv; also called ZZ1ODR-G02
B7: PaB670099 scFv (scFv, V domains shown)
VH: B1 VH with A61H, H63S, H64V, K65H
VL: B1 VL
notes: purified scFv
B8: PaB670103 scFv (scFv, V domains shown)
VH: B1 VH with H54S, H57L, H63S, H64V, H66G
VL: B1 VL with Q88H, N93H, P94H, V101H
notes: purified scFv; also called ZZ1RCX-C09
B9: PaB670090 scFv (scFv, V domains shown)
VH: B1 VH with S56H, Y60H, H64V
VL: B1 VL
notes: purified scFv; also called ZZ1ODR-F02
B10: PaB670107 scFv (scFv, V domains shown)
VH: B1 VH with H54S, H57L, H63S, H64V, H66G
VL: B1 VL with Q88H, T89H, D91H, G92H, T96H, G97H
notes: purified scFv; also called ZZ1RD3-D09
B11: PaB670100 scFv (scFv, V domains shown)
VH: B1 VH with S56H, Y60H, D62H, H64V, K65H, H66G
VL: B1 VL
notes: purified scFv
B12: PaB670088 scFv (scFv, V domains shown)
VH: B1 VH with H54S, S56H, H57L, S59H, K65H, H66G
VL: B1 VL
notes: purified scFv; also called ZZ1ODR-B11
B13: PaB670094 scFv (scFv, V domains shown)
VH: B1 VH with S56H, Y60H, H66G
VL: B1 VL
notes: purified scFv; also called ZZ1ODS-B08
B14: PaB670097 scFv (scFv, V domains shown)
VH: B6 VH with S52H, I58H, H59S, H60Y, S63H
VL: B1 VL
notes: purified scFv; also called ZZ1ODT-E11
B15: PaB670106 scFv (scFv, V domains shown)
VH: B1 VH with H54S, H57L, H63S, H64V, H66G
VL: B1 VL with Q88H, G92H, T95H, T96H, G97H, E98H, V101H
notes: purified scFv; also called ZZ1RD0-G02
B16: PaB670104 scFv (scFv, V domains shown)
VH: B1 VH with H54S, H57L, H63S, H64V, H66G
VL: B1 VL with T89H, N93H, P94H, T95H
notes: purified scFv
B17: PaB670093 scFv (scFv, V domains shown)
VH: B6 VH with H53Y, S54H, G55H, H59S, H61A, H62D
VL: B1 VL
notes: purified scFv; also called ZZ1ODR-H04
B18: PaB670095 scFv (scFv, V domains shown)
VH: B1 VH with S56H, H63S, K65H
VL: B1 VL
notes: purified scFv; also called ZZ1ODS-H05
B19: PaB670105 scFv (scFv, V domains shown)
VH: B1 VH with H54S, H57L, H63S, H64V, H66G
VL: B1 VL with T89H, D91H, T95H, T99H, V101H
notes: purified scFv; also called ZZ1RD0-D01
B20: PaB670089 scFv (scFv, V domains shown)
VH: B1 VH with Y60H, H64V, K65H, H66G
VL: B1 VL
notes: purified scFv; also called ZZ1ODR-C05
B21: PaB670098 scFv (scFv, V domains shown)
VH: B6 VH with I58H, H60Y, H61A, H62D, V64H, G66H
VL: B1 VL
notes: purified scFv; also called ZZ1ODT-G01
B22: PaB670092 scFv (scFv, V domains shown)
VH: B1 VH with A61H, H63S, K65H, H66G
VL: B1 VL
notes: purified scFv; also called ZZ1ODR-G11

Positions count from the first letter of the chain named.

One assay deals with T1, recombinant biotinylated human PAR2 extracellular domain (residues 1-75), N-terminal AviTag, C-terminal Flag … (human, UniProt P55085 26-75, biotin on the AviTag (enzymatic biotinylation)).
T1 construct: also called Bio-human-PAR2 ECD; human PAR2 ECD; not shown: N-terminal AviTag (Avidity LLC); C-terminal Flag and poly Histidine tags
T1 sequence (P55085 26-75): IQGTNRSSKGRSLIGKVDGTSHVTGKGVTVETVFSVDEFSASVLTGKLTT
Nature of the assay: HTRF competition with Par0067 IgG, pH 6.0, scFv. How it is done:
(§1) 5 μl/well of the appropriate pH 4.44 nM Par0067 IgG solution was added to all wells of the relevant assay plate (pH 7.4 and pH 6.0).
(§2) Test scFv Preparation/Addition: [0172] a) For parallel single point HTS of crude un-purified bacterial lysate scFv samples at both pH 7.4 and pH 6.0 samples were first pre-diluted to 40% of their neat concentration using either pH 7.4 or pH 6.0 assay buffer as appropriate. Subsequently 5 μl of 40% pre-diluted sample was then transferred into the appropriate assay (pH 7.4 or pH 6.0) in order to give a final assay sample concentration of 10.0% (in the 20 μl final assay volume). The parent Par0067 scFv was included in all HTS experiments as a control as were specific pH dependent antibodies as those became available (for benchmarking). […] Duplicate 11 point 1:3 serial dilutions then were prepared on 384 well polypropylene Greiner plates in each of the two assay buffers (pH 7.4 & 6.0). 5 μl per well of each serial dilution was transferred from the relevant pH scFv dilution plate to the corresponding assay plate (pH 7.4 and pH 6.0). 5 μl of the appropriate pH assay buffer was added to the total and non-specific wells. The parent Par0067 purified scFv was included in all multipoint dose response IC₅₀ experiments as a control as were specific pH dependent purified scFv as those became available (for benchmarking).
(§3) For multipoint dose response curves % Specific Binding values were plotted versus test purified antibody concentration (scFv or IgG). IC₅₀ values were determined via a sigmoidal dose response inhibition variable slope curve fit (4 parameter logistic equation) using Graphpad Prism Software.
By IC50 is commonly meant the concentration needed to halve the response being measured. As for B1, the IC50 is 131 nM.
Turning to B2, the IC50 was determined as 3.6 nM.
As for B3, the IC50 was found to be 496 nM.
On the same count and under the same terms, under B4 stands 13.7 nM; under B5, 149 nM.
As to B6, the IC50 was 98.9 nM.
On to B7, for which the IC50 turned out to be 62.4 nM.
The same measure, in the same setting: under B8 stands 204 nM.
In the case of B9, the IC50 was determined as 85.5 nM.
For the molecule B10, the IC50 is 464 nM.
Still for that read-out and setting: the result for B11 reads 69 nM.
Still for that read-out and setting: under B12 stands 115 nM; under B13, 237 nM.
In the case of B14, the IC50 stood at 77.9 nM.
Same read-out and setting: the result for B15 reads 1190 nM; that for B16, 202 nM.
B17: the IC50 is 58.7 nM.
Turning to B18, the IC50 was 113 nM.
As for B19, the IC50 stood at 496 nM.
The same measure, in the same setting: under B20 stands 134 nM; under B21, 210 nM; under B22, 194 nM.

A further assay deals with T1, recombinant biotinylated human PAR2 …. Description: HTRF competition with Par0067 IgG, scFv. On the procedure: as §1, §2, §3
On the technique in general: In TR-FRET formats the signal depends on donor and acceptor labels being close together.
On to B1, for which the “Fold IC50 (pH 6.0 v pH 7.4)” value worked out at 3.2 fold and the “Fold IC50 pH 7.4 (Variant v Par0067)” value was found to be 12.4 fold.
The matching figures for B2: 1.1 fold and 1 fold.
For B3, the “Fold IC50 (pH 6.0 v pH 7.4)” value came out at 3.4 fold and the “Fold IC50 pH 7.4 (Variant v Par0067)” value amounted to 44.5 fold.
For B4, in that order: 2.6 fold and 1.6 fold.
Turning to B5, the “Fold IC50 (pH 6.0 v pH 7.4)” value is 5.1 fold and the “Fold IC50 pH 7.4 (Variant v Par0067)” value was 8.8 fold.
The matching figures for B6: 3.9 fold and 7.6 fold.
For B7, in that order: 4.8 fold and 3.9 fold.
The matching figures for B8: 7.3 fold and 8.5 fold.
With B9, the “Fold IC50 (pH 6.0 v pH 7.4)” value was 3.8 fold and the “Fold IC50 pH 7.4 (Variant v Par0067)” value came to 6.8 fold.
The matching figures for B10: 10.9 fold and 12.9 fold.
The matching figures for B11: 3.4 fold and 6.2 fold.
For B12, in that order: 3.8 fold and 9 fold.
Regarding B13, the “Fold IC50 (pH 6.0 v pH 7.4)” value came out at 3.3 fold and the “Fold IC50 pH 7.4 (Variant v Par0067)” value worked out at 22 fold.
For B14, in that order: 3.6 fold and 6.6 fold.
The matching figures for B15: 3.8 fold and 94.8 fold.
For B16, in that order: 9.3 fold and 6.6 fold.
Consider B17, for which the “Fold IC50 (pH 6.0 v pH 7.4)” value was 3.2 fold and the “Fold IC50 pH 7.4 (Variant v Par0067)” value is 5.6 fold.
With B18, the “Fold IC50 (pH 6.0 v pH 7.4)” value stood at 5.7 fold and the “Fold IC50 pH 7.4 (Variant v Par0067)” value came out at 6.1 fold.
For B19, in that order: 6.7 fold and 22.5 fold.
For B20, in that order: 4.5 fold and 9.1 fold.
For B21, in that order: 3.2 fold and 20 fold.
For B22, the “Fold IC50 (pH 6.0 v pH 7.4)” value worked out at 4.7 fold and the “Fold IC50 pH 7.4 (Variant v Par0067)” value was 12.5 fold.

For another assay the target is unchanged. Description: HTRF competition with Par0067 IgG, pH 7.4, scFv. How it is done:
as §1, §2, §3
For B1, the IC50 was found to be 40.9 nM.
Same read-out and setting: the result for B2 reads 3.3 nM.
Turning to B3, the IC50 was 147 nM.
On the same count and under the same terms, the result for B4 reads 5.3 nM; that for B5, 29.1 nM; that for B6, 25.2 nM.
The same measure, in the same setting: under B7 stands 12.9 nM.
Still for that read-out and setting: under B8 stands 27.9 nM; under B9, 22.6 nM; under B10, 42.7 nM.
Consider B11, for which the IC50 was 20.3 nM.
Still for that read-out and setting: the result for B12 reads 29.8 nM; that for B13, 72.5 nM.
On the same count and under the same terms, the result for B14 reads 21.8 nM; that for B15, 313 nM; that for B16, 21.7 nM.
Still for that read-out and setting: under B17 stands 18.6 nM; under B18, 20 nM; under B19, 74.4 nM.
Take B20: the IC50 is 29.9 nM.
The same measure, in the same setting: under B21 stands 65.9 nM.
The same measure, in the same setting: the result for B22 reads 41.1 nM.
